This passage reports ratio to parent and fold change in KD against the wild-type Fab results from PMC10636607.

What all share (test): BLI
The target in one assay is SARS-CoV-2 spike.
Assay [1] addresses HC84.26.5D Fab VH G50R (human).
For assay [2], the target named is biotinylated SARS-CoV-2 fusion peptide.
The target of the next assay is influenza HA.
Assay [3] concerns the target HCV E2 envelope glycoprotein.

Like-named read-outs stand apart in the source and are kept apart here.

Sequence of HC84.26.5D Fab VH G50R (human) (heavy, as listed by the source, chain 1 of 2): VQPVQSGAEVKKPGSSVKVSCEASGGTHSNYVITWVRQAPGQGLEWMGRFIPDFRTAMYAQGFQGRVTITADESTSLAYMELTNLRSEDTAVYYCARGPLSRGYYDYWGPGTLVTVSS
Sequence of HC84.26.5D Fab VH G50R (human) (light, as listed by the source, chain 2 of 2): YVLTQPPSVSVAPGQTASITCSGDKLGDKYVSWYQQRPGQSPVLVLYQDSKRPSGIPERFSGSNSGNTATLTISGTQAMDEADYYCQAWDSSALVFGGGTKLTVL

For Ab326 (WT) H:V50F, in the assay with SARS-CoV-2 spike (read off a plot), the ratio to parent was 9.4.
On to “HCV (isolate H77) E2 domain protein (domain or fragment)”, for which, in assay [1], the fold change in KD against the wild-type Fab came out at 6 fold.
Consider COV44-62 Fab (WT) H:R50W, for which the ratio to parent in assay [2] was over 100.
Turning to 8F8 (WT) H:S31R, the ratio to parent with influenza HA is over 100.
Turning to P008_60 (WT) H:S52R, in the assay with SARS-CoV-2 spike, the ratio to parent is over 100.
As for HC33.8 (WT) H:S52Y, the ratio to parent in assay [3] was over 100.
The same measure, in the same setting: the result for HCV1 (WT) H:W52S reads over 100.
Turning to COVOX-316 (WT) H:W50R, the ratio to parent in the assay with SARS-CoV-2 spike was over 100.
As to H1244 (WT) H:S32Y, the ratio to parent with influenza HA is over 100.
